Biological target: tyrosine phosphorylated ^32 P-labelled RCM-lysozyme (Gallus gallus (Chicken)) (UniProt P00698)

## full length PTP-PEST D199A (from UniProt Q05209) (enzyme)
  specific activity with tyrosine phosphorylated RCM-Lysozyme as substrate (fold lower than the wild type enzyme): 10000

Reference: patent US5951979
